Results taken from the nanobody polyreactivity screen of Harvey et al. (2022).

Assay: yeast display, Sf9 membrane polyspecificity reagent, FACS + sequencing; frameworks hold sequencing errors
In short: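 Galactose induction of a Saccharomyces cerevisiae BJ5465 synthetic nanobody display library ran 36–48 hours. The cells were then stained for 1 hour at 4 °C with 10% biotinylated, detergent-solubilized Sf9 membrane reagent, pulled down on streptavidin microbeads and FACS-sorted into low and high (top ~1%) gates on expression and reagent-binding fluorescence. Labels for polyreactivity follow the gate of origin.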

Sequence	polyreactivity (PSR sort gate)
QVQLVESGGGLVQAGGSLRLSCAASGRIFGQYAMGWYRQAPGKERELVAAITYSTGSTSYADSVKGRFTISRDNAKNTVYLQMNSLKPEDTAVYYCAAGGGRWYYPKRGSPYGFYYWGLGTQVTVSS	high polyreactivity
QDQLVESGGGLVQAGGSLRLSCAASGSIFWGYDMGWYRQAPGKEMELVARISYSGGSTSYADSVKGRFTISRDNAKNTVYLQMNSLKPEDTAVYYCAADEGGFWWTYPYDSWGQGTQVTVSS	low polyreactivity
QVQLVESGGGLVQAGGSLRLSCAASGSISHLYTMGCYRQSPGKERELVAAIRYSGGRTDYADSVKGRFTISRDNAKNTVYLQMNSLKPEDTAVYYCAAGRSFRGSYWYEYWGQGTQVTVSS	high polyreactivity
QVQLVESGGGLVQAGGSLRLSCAASGRPFSGYAMGWYRQAPGKERELVAAITSSGSSTYYADSVKGRFTISRDNAKNTVYLQMNSLKPEDTAVFYCAATPQAHSERYYYQRKYDYWGQGTQVTVSS	low polyreactivity
QVQLVESGGGLVQAGGSLRLSCAASGFIFHDNAMGWYRQAPGKERELVAAIRSTGSTNYADSVKGRFTISRDNAKNTVYLQMNSLKPEDTAVYYCNAGKYQSDTPSLDPTEYPAFYYWGQGTQVTVSS	low polyreactivity
QVQLVESGGGLVQAGGRLRLSCAASGSSFVAYTMGWYRQAPGKERELVAAISRGGSTNYADSVKGRFTISRDNAKNTVYLQMNSLKPEDTAVYYCAAKVWDGQLLYYWGQGTQVTVSS	low polyreactivity
QVQLVESGGGLVQAGGSLRLSCAASGRTFRRYAMGWYRQAPGKERELVAAITSGGDTYYADSVKGRFTISRDNAKNTVYLQMNSLKPEDTAVYYCNAASVTRRTGIRAVDFDYWGQGTQVTVSS	high polyreactivity
QVQLVESGRGLVQEGGSLRLSCAASGRIFSAYAMGWYRQAPVKERELVAAITWSGANTDYADSVKGRFTISRDNAKNNVYLQMNSLKPEDTAVYYCNASVGRDSAYDYLGQGTQVTVSS	low polyreactivity
QVQLVESGGGLVQAGGSLRLSCAASGSIFGNAMGWYRQAPGKERELVAAISRRGGRTYYADSVKGRFTISRDNAKNTVYLQMNSLKPEDTAVYYCNKYVTPWNEMDYWGQGTQVTVSS	high polyreactivity
QVQLVESGGGLVQAGGSLRLSCAASGFTFFRNAMGWYRQAPGKEMELVAAISGSGGSTYYADSVKGRFTISRDNAKNTVYLQINSLKPEDTAVYYCATYSYPAKVPEAYNYWGQGSQVTVSS	low polyreactivity
QVQLVESGGGLVQAGGSLRLSCAASGSTFDINVMGWYRQAPGKERELVAAITWSGGRTYYADSVKGRFTISRDNAKNTVYLQMNSLKPEDTAVYYCAARVGRGVYRYVPREFDYWGQGTQVTVSS	high polyreactivity
QVQLVESGGGLVQAGGSLRLSCAASVSIFRVYALGWYRQEPGKERELVAAITNGGNTNYADSVKGRFTISRDNAKNTVYLQMYSLKPVDTAVYYCAATLNRYWFRLYYYLGQGTQVTVSS	high polyreactivity
QVQLVESGRGLVQAGGSLRLSCAASGFTFLLNAMGWYRQAPGKERELVAAITYSGGSTYYADSVKGRFTISRDNAKNTVYLQMNSLKPEDTAVYYCAKTSVTISEYEYWGQGTQVTVSS	low polyreactivity
QVQLVESGGGLVQAGGSLRLSCAASGSTFVRYAMGWYRQAPGKERELVAAIRGGGGTYYADSVKGRFTISRDNAKNTVYLQMNSLKPEDTAVYYCAADTYYYYWFAGYTEYDYWGQGTQVTVSS	low polyreactivity
QVQLVESGGGLVQAGGSLRLSCAASGRIFSANAMGWYRQAPGKERELVAISWTGGSTYYADSVKGRFTISRDNAKNTVYLQMNSLKPEDTAVYYCAKERYGKYFGSVDYWGQGTQVTVSS	low polyreactivity
QVQLVESGGGLVQAGGSLRLSCAASGFTFKSNAMGWYRPSPGKERELVAAITWNGGSTYADSEKGRFTISRDNAKNTVYLQMNSLKPEDTAVYYCAARPYPHSAYEGDYWGRGTQVTVSS	low polyreactivity
